Source: the supplement of paper PMC5998384

Experiments:
[1] = system: HeLa Kyoto; test: thermal stability score vs G1/S (z-score of summed log2 fold changes over temperatures); higher = more thermally stable than in G1/S
[2] = system: HeLa Kyoto; test: solubility in G1/S (NP-40 vs SDS abundance) (log2 ratio); higher = more soluble; conditions: cell cycle stage: G1/S
[3] = system: HeLa Kyoto; test: solubility change mitosis vs G1/S (difference of NP-40 vs SDS log2 ratios) (log2 ratio difference); higher = more soluble in mitosis
[4] = system: HeLa Kyoto; test: melting temperature (median over replicates), in situ; higher = more thermally stable
[5] = cell cycle stage: early G1 (4.5 h after nocodazole release)
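Wherever melting temperature (median over replicates), in situ is given: HeLa Kyoto cells synchronized by double thymidine or nocodazole block, proteins quantified by TMT10plex mass spectrometry, three independent biological replicates.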
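Wherever solubility change mitosis vs G1/S (difference of NP-40 vs SDS log2 ratios) is given: synchronized HeLa Kyoto cells (double thymidine block for G1/S, nocodazole release for mitosis), protein amounts in NP-40 versus SDS lysates quantified by mass spectrometry, three biological replicates.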
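Wherever solubility in G1/S (NP-40 vs SDS abundance) is given: HeLa Kyoto cells arrested at G1/S by double thymidine block, proteins quantified by TMT10plex mass spectrometry in mild NP-40 versus SDS extracts, three biological replicates.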
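Wherever thermal stability score vs G1/S (z-score of summed log2 fold changes over temperatures) is given: synchronized HeLa Kyoto cells, proteins quantified by TMT10plex mass spectrometry, three biological replicates, mitosis taken 0.5 h after nocodazole release, G1/S directly after double thymidine block.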

Row | Sequence | thermal stability score [1, 5] | thermal stability score ([1]; cell cycle stage: mitosis) | solubility in G1/S (log2) [2] | solubility change mitosis (log2) [3] | melting temperature ([4]; cell cycle stage: G1/S) | melting temperature ([4]; cell cycle stage: mitosis)
1 | MANDSPAKSLVDIDLSSLRDPAGIFELVEVVGNGTYGQVYKGRHVKTGQLAAIKVMDVTEDEEEEIKLEINMLKKYSHHRNIATYYGAFIKKSPPGHDDQLWLVMEFCGAGSITDLVKNTKGNTLKEDWIAYISREILRGLAHLHIHHVIHRDIKGQNVLLTENAEVKLVDFGVSAQLDRTVGRRNTFIGTPYWMAPEVIACDENPDATYDYRSDLWSCGITAIEMAEGAPPLCDMHPMRALFLIPRNPPPRLKSKKWSKKFFSFIEGCLVKNYMQRPSTEQLLKHPFIRDQPNERQVRIQLKDHIDRTRKKRGEKDETEYEYSGSEEEEEEVPEQEGEPSSIVNVPGESTLRRDFLRLQQENKERSEALRRQQLLQEQQLREQEEYKRQLLAERQKRIEQQKEQRRRLEEQQRREREARRQQEREQRRREQEEKRRLEELERRRKEEEERRRAEEEKRRVEREQEYIRRQLEEEQRHLEVLQQQLLQEQAMLLECRWREMEEHRQAERLQRQLQQEQAYLLSLQHDHRRPHPQHSQQPPPPQQERSKPSFHAPEPKAHYEPADRAREVEDRFRKTNHSSPEAQSKQTGRVLEPPVPSRSESFSNGNSESVHPALQRPAEPQVPVRTTSRSPVLSRRDSPLQGSGQQNSQAGQRNSTSIEPRLLWERVEKLVPRPGSGSSSGSSNSGSQPGSHPGSQSGSGERFRVRSSSKSEGSPSQRLENAVKKPEDKKEVFRPLKPADLTALAKELRAVEDVRPPHKVTDYSSSSEESGTTDEEDDDVEQEGADESTSGPEDTRAASSLNLSNGETESVKTMIVHDDVESEPAMTPSKEGTLIVRQTQSASSTLQKHKSSSSFTPFIDPRLLQISPSSGTTVTSVVGFSCDGMRPEAIRQDPTRKGSVVNVNPTNTRPQSDTPEIRKYKKRFNSEILCAALWGVNLLVGTESGLMLLDRSGQGKVYPLINRRRFQQMDVLEGLNVLVTISGKKDKLRVYYLSWLRNKILHNDPEVEKKQGWTTVGDLEGCVHYKVVKYERIKFLVIALKSSVEVYAWAPKPYHKFMAFKSFGELVHKPLLVDLTVEEGQRLKVIYGSCAGFHAVDVDSGSVYDIYLPTHIQCSIKPHAIIILPNTDGMELLVCYEDEGVYVNTYGRITKDVVLQWGEMPTSVAYIRSNQTMGWGEKAIEIRSVETGHLDGVFMHKRAQRLKFLCERNDKVFFASVRSGGSSQVYFMTLGRTSLLSW [MAP4K4] | 0.471 | 0.408 | -0.155 | -0.0676 | 51.7 °C | 51.3 °C
2 | MAASAAAASAAAASAASGSPGPGEGSAGGEKRSTAPSAAASASASAAASSPAGGGAEALELLEHCGVCRERLRPEREPRLLPCLHSACSACLGPAAPAAANSSGDGGAAGDGTVVDCPVCKQQCFSKDIVENYFMRDSGSKAATDAQDANQCCTSCEDNAPATSYCVECSEPLCETCVEAHQRVKYTKDHTVRSTGPAKSRDGERTVYCNVHKHEPLVLFCESCDTLTCRDCQLNAHKDHQYQFLEDAVRNQRKLLASLVKRLGDKHATLQKSTKEVRSSIRQVSDVQKRVQVDVKMAILQIMKELNKRGRVLVNDAQKVTEGQQERLERQHWTMTKIQKHQEHILRFASWALESDNNTALLLSKKLIYFQLHRALKMIVDPVEPHGEMKFQWDLNAWTKSAEAFGKIVAERPGTNSTGPAPMAPPRAPGPLSKQGSGSSQPMEVQEGYGFGSGDDPYSSAEPHVSGVKRSRSGEGEVSGLMRKVPRVSLERLDLDLTADSQPPVFKVFPGSTTEDYNLIVIERGAAAAATGQPGTAPAGTPGAPPLAGMAIVKEEETEAAIGAPPTATEGPETKPVLMALAEGPGAEGPRLASPSGSTSSGLEVVAPEGTSAPGGGPGTLDDSATICRVCQKPGDLVMCNQCEFCFHLDCHLPALQDVPGEEWSCSLCHVLPDLKEEDGSLSLDGADSTGVVAKLSPANQRKCERVLLALFCHEPCRPLHQLATDSTFSLDQPGGTLDLTLIRARLQEKLSPPYSSPQEFAQDVGRMFKQFNKLTEDKADVQSIIGLQRFFETRMNEAFGDTKFSAVLVEPPPMSLPGAGLSSQELSGGPGDGP [TRIM28] | 1.33 | 6.59 | 0.119 | -0.0696 | 48.2 °C | 49.2 °C
3 | MCGIFAYLNYHVPRTRREILETLIKGLQRLEYRGYDSAGVGFDGGNDKDWEANACKIQLIKKKGKVKALDEEVHKQQDMDLDIEFDVHLGIAHTRWATHGEPSPVNSHPQRSDKNNEFIVIHNGIITNYKDLKKFLESKGYDFESETDTETIAKLVKYMYDNRESQDTSFTTLVERVIQQLEGAFALVFKSVHFPGQAVGTRRGSPLLIGVRSEHKLSTDHIPILYRTARTQIGSKFTRWGSQGERGKDKKGSCNLSRVDSTTCLFPVEEKAVEYYFASDASAVIEHTNRVIFLEDDDVAAVVDGRLSIHRIKRTAGDHPGRAVQTLQMELQQIMKGNFSSFMQKEIFEQPESVVNTMRGRVNFDDYTVNLGGLKDHIKEIQRCRRLILIACGTSYHAGVATRQVLEELTELPVMVELASDFLDRNTPVFRDDVCFFLSQSGETADTLMGLRYCKERGALTVGITNTVGSSISRETDCGVHINAGPEIGVASTKAYTSQFVSLVMFALMMCDDRISMQERRKEIMLGLKRLPDLIKEVLSMDDEIQKLATELYHQKSVLIMGRGYHYATCLEGALKIKEITYMHSEGILAGELKHGPLALVDKLMPVIMIIMRDHTYAKCQNALQQVVARQGRPVVICDKEDTETIKNTKRTIKVPHSVDCLQGILSVIPLQLLAFHLAVLRGYDVDFPRNLAKSVTVE [GFPT1] | -0.54 | 0.683 | -0.169 | -0.226 | 56.1 °C | 56.2 °C
4 | MAMGDDKSFDDEESVDGNRPSSAASAFKVPAPKTSGNPANSARKPGSAGGPKVGGASKEGGAGAVDEDDFIKAFTDVPSIQIYSSRELEETLNKIREILSDDKHDWDQRANALKKIRSLLVAGAAQYDCFFQHLRLLDGALKLSAKDLRSQVVREACITVAHLSTVLGNKFDHGAEAIVPTLFNLVPNSAKVMATSGCAAIRFIIRHTHVPRLIPLITSNCTSKSVPVRRRSFEFLDLLLQEWQTHSLERHAAVLVETIKKGIHDADAEARVEARKTYMGLRNHFPGEAETLYNSLEPSYQKSLQTYLKSSGSVASLPQSDRSSSSSQESLNRPFSSKWSTANPSTVAGRVSAGSSKASSLPGSLQRSRSDIDVNAAAGAKAHHAAGQSVRSGRLGAGALNAGSYASLEDTSDKLDGTASEDGRVRAKLSAPLAGMGNAKADSRGRSRTKMVSQSQPGSRSGSPGRVLTTTALSTVSSGVQRVLVNSASAQKRSKIPRSQGCSREASPSRLSVARSSRIPRPSVSQGCSREASRESSRDTSPVRSFQPLASRHHSRSTGALYAPEVYGASGPGYGISQSSRLSSSVSAMRVLNTGSDVEEAVADALKKPARRRYESYGMHSDDDANSDASSACSERSYSSRNGSIPTYMRQTEDVAEVLNRCASSNWSERKEGLLGLQNLLKNQRTLSRVELKRLCEIFTRMFADPHGKRVFSMFLETLVDFIQVHKDDLQDWLFVLLTQLLKKMGADLLGSVQAKVQKALDVTRESFPNDLQFNILMRFTVDQTQTPSLKVKVAILKYIETLAKQMDPGDFINSSETRLAVSRVITWTTEPKSSDVRKAAQSVLISLFELNTPEFTMLLGALPKTFQDGATKLLHNHLRNTGNGTQSSMGSPLTRPTPRSPANWSSPLTSPTNTSQNTLSPSAFDYDTENMNSEDIYSSLRGVTEAIQNFSFRSQEDMNEPLKRDSKKDDGDSMCGGPGMSDPRAGGDATDSSQTALDNKASLLHSMPTHSSPRSRDYNPYNYSDSISPFNKSALKEAMFDDDADQFPDDLSLDHSDLVAELLKELSNHNERVEERKIALYELMKLTQEESFSVWDEHFKTILLLLLETLGDKEPTIRALALKVLREILRHQPARFKNYAELTVMKTLEAHKDPHKEVVRSAEEAASVLATSISPEQCIKVLCPIIQTADYPINLAAIKMQTKVIERVSKETLNLLLPEIMPGLIQGYDNSESSVRKACVFCLVAVHAVIGDELKPHLSQLTGSKMKLLNLYIKRAQTGSGGADPTTDVSGQS [CLASP2] | 0.157 | 0.371 | -0.0972 | -0.0766 | 49.7 °C | 49.7 °C
5 | MKLWVSALLMAWFGVLSCVQAEFFTSIGHMTDLIYAEKELVQSLKEYILVEEAKLSKIKSWANKMEALTSKSAADAEGYLAHPVNAYKLVKRLNTDWPALEDLVLQDSAAGFIANLSVQRQFFPTDEDEIGAAKALMRLQDTYRLDPGTISRGELPGTKYQAMLSVDDCFGMGRSAYNEGDYYHTVLWMEQVLKQLDAGEEATTTKSQVLDYLSYAVFQLGDLHRALELTRRLLSLDPSHERAGGNLRYFEQLLEEEREKTLTNQTEAELATPEGIYERPVDYLPERDVYESLCRGEGVKLTPRRQKRLFCRYHHGNRAPQLLIAPFKEEDEWDSPHIVRYYDVMSDEEIERIKEIAKPKLARATVRDPKTGVLTVASYRVSKSSWLEEDDDPVVARVNRRMQHITGLTVKTAELLQVANYGVGGQYEPHFDFSRNDERDTFKHLGTGNRVATFLNYMSDVEAGGATVFPDLGAAIWPKKGTAVFWYNLLRSGEGDYRTRHAACPVLVGCKWVSNKWFHERGQEFLRPCGSTEVD [P4HA2] | 2.83 | 4.61 | 0.0555 | -0.0711 | 54.2 °C | 54.1 °C
6 | MGEFNEKKTTCGTVCLKYLLFTYNCCFWLAGLAVMAVGIWTLALKSDYISLLASGTYLATAYILVVAGTVVMVTGVLGCCATFKERRNLLRLYFILLLIIFLLEIIAGILAYAYYQQLNTELKENLKDTMTKRYHQPGHEAVTSAVDQLQQEFHCCGSNNSQDWRDSEWIRSQEAGGRVVPDSCCKTVVALCGQRDHASNIYKVEGGCITKLETFIQEHLRVIGAVGIGIACVQVFGMIFTCCLYRSLKLEHY [CD151] | 0.401 | -1.63 | -0.288 | 0.0099 | 60 °C | 61.3 °C
7 | MEWWASSPLRLWLLLFLLPSAQGRQKESGSKWKVFIDQINRSLENYEPCSSQNCSCYHGVIEEDLTPFRGGISRKMMAEVVRRKLGTHYQITKNRLYRENDCMFPSRCSGVEHFILEVIGRLPDMEMVINVRDYPQVPKWMEPAIPVFSFSKTSEYHDIMYPAWTFWEGGPAVWPIYPTGLGRWDLFREDLVRSAAQWPWKKKNSTAYFRGSRTSPERDPLILLSRKNPKLVDAEYTKNQAWKSMKDTLGKPAAKDVHLVDHCKYKYLFNFRGVAASFRFKHLFLCGSLVFHVGDEWLEFFYPQLKPWVHYIPVKTDLSNVQELLQFVKANDDVAQEIAERGSQFIRNHLQMDDITCYWENLLSEYSKFLSYNVTRRKGYDQIIPKMLKTEL [POGLUT1] | 2.61 | 3.25 | 0.28 | -0.0965 | 52.9 °C | 54 °C
8 | MTDGDYDYLIKLLALGDSGVGKTTFLYRYTDNKFNPKFITTVGIDFREKRVVYNAQGPNGSSGKAFKVHLQLWDTAGQERFRSLTTAFFRDAMGFLLMFDLTSQQSFLNVRNWMSQLQANAYCENPDIVLIGNKADLPDQREVNERQARELADKYGIPYFETSAATGQNVEKAVETLLDLIMKRMEQCVEKTQIPDTVNGGNSGNLDGEKPPEKKCIC [RAB27B] | -1.38 | -2.39 | 0.00344 | -0.0223 | 55.7 °C | 59.9 °C
9 | MSYPGYPPTGYPPFPGYPPAGQESSFPPSGQYPYPSGFPPMGGGAYPQVPSSGYPGAGGYPAPGGYPAPGGYPGAPQPGGAPSYPGVPPGQGFGVPPGGAGFSGYPQPPSQSYGGGPAQVPLPGGFPGGQMPSQYPGGQPTYPSQINTDSFSSYPVFSPVSLDYSSEPATVTQVTQGTIRPAANFDAIRDAEILRKAMKGFGTDEQAIVDVVANRSNDQRQKIKAAFKTSYGKDLIKDLKSELSGNMEELILALFMPPTYYDAWSLRKAMQGAGTQERVLIEILCTRTNQEIREIVRCYQSEFGRDLEKDIRSDTSGHFERLLVSMCQGNRDENQSINHQMAQEDAQRLYQAGEGRLGTDESCFNMILATRSFPQLRATMEAYSRMANRDLLSSVSREFSGYVESGLKTILQCALNRPAFFAERLYYAMKGAGTDDSTLVRIVVTRSEIDLVQIKQMFAQMYQKTLGTMIAGDTSGDYRRLLLAIVGQ [ANXA7] | 2.36 | 2 | 0.437 | 0.0486 | 50.7 °C | 51.3 °C
